According to paper PMC12607895 (2025):

B1: CD46 (receptor)
chain: CEEPPTFEAMELIGKPKPYYEIGERVDYKCKKGYFYIPPLATHTICDRNHTWLPVSDDACYRETCPYIRDPLNGQAVPANGTYEFGYQMHFICNEGYYLIGEEILYCELKGSVAIWSGKPPICEKVLCTPPPKIKNGKHTFSEVEVFEYLDAVTYSCDPAPGPDPFSLIGESTIYCGDNSVWSRAAPECKVVKCRFPVVENGKQISGFGKKFYYKATVMFECDKGFYLDGSDTIVCDSNSTWDPPVPKCLKVLPPSSTKPPALSHSVSTSSTTKSPASSASGPRPTYKPPVSNYPGYPKPEEGILDSLD

Columns and labels:
Experiment in all cases: SPR
HAdV-D37 hexon = HAdV-D37 hexon (human adenovirus D37 (HAdV-D37))
HAdV-D56 fiber knob = HAdV-D56 fiber knob (human adenovirus D56 (HAdV-D56))
HAdV-B11 hexon = HAdV-B11 hexon (human adenovirus B11 (HAdV-B11))
HAdV-D113 fiber knob = HAdV-D113 fiber knob (human adenovirus D113 (HAdV-D113))
HAdV-D113 hexon = HAdV-D113 hexon (human adenovirus D113 (HAdV-D113))
CD46 = biological target: B1

Binder	Kd (CD46) [nM]	other results
B1		Kd (HAdV-D37 hexon): 3090 nM; Kd (HAdV-D56 fiber knob): 150 nM
CD46 (receptor) CEEPPTFEAMELIGKPKPYYEIGERVDYKCKKGYFYIPPLATHTICDRNHTWLPVSDDACYRETCPYIRDPLNGQAVPANGTYEFGYQMHFICNEGYYLIGEEILYCELKGSVAIWSGKPPICEKVLCTPPPKIKNGKHTFSEVEVFEYLDAVTYSCDPAPGPDPFSLIGESTIYCGDNSVWSRAAPECKVVKCRFPVVENGKQISGFGKKFYYKATVMFECDKGFYLDGSDTIVCDSNSTWDPPVPKCLKVLPPSSTKPPALSHSVSTSSTTKSPASSASGPRPTYKPPVSNYPGYPKPEEGILDSLDVWVIAVIVIAIVVGVAVICVVPYRYLQRRKKKGTYLTDETHREVKFTSL		Kd (HAdV-B11 hexon): 210 nM; Kd (HAdV-D113 fiber knob): 130 nM; Kd (HAdV-D113 hexon): 4190 nM
HAdV-D26 hexon (natural protein, Source, isoform and limits not given; soluble extracellular domain assumed; N/O-glycosylated; amine-coupled to CM5 chip) ATPSMMPQWAYMHIAGQDASEYLSPGLVQFARATDTYFSLGNKFRNPTVAPTHDVTTDRSQRLTLRFVPVDREDTTYSYKARFTLAVGDNRVLDMASTYFDIRGVLDRGPSFKPYSGTAYNSLAPKGAPNPSQWETKEKQGTTGGVQQEKDVTKTFGVAATGGINITNQGLLLGTDETAENGKKDIYADKTFQPEPQVGEENWQENEAFYGGRALKKDTKMKPCYGSFARPTNEKGGQAKFKPVNEGEQPKDLDIDFAYFDVPGGSPPAGGSGEEYKADIILYTENVNLETPDTHVVYKPGTSDNSSEINLVQQSMPNRPNYIGFRDNFVGLMYYNSTGNMGVLAGQASQLNAVVDLQDRNTELSYQLLLDSLGDRTRYFSMWNSAVDSYDPDVRIIENHGVEDELPNYCFPLNGTGTNSTYQGVKITNGNDGAEESEWEKDDAISRQNQICKGNVYAMEINLQANLWKSFLYSNVALYLPDSYKYTPANVKLPANTNTYEYMNGRVVAPSLVDAYINIGARWSLDPMDNVNPFNHHRNAGLRYRSMLLGNGRYVPFHIQVPQKFFAIKNLLLLPGSYTYEWNFRKDVNMILQSSLGNDLRVDGASVRFDSVNLYATFFPMAHNTASTLEAMLRNDTNDQSFNDYLSAANMLYPIPAKATNVPISIPSRNWAAFRGWSFTRLKTKETPSLGSGFDPYFVYSGSIPYLDGTFYLNHTFKKVSIMFDSSVSWPGNDRLLTPNEFEIKRSVDGEGYNVAQCNMTKDWFLVQMLSHYNIGYQGFHVPEGYKDRMYSFFRNFQPMSRQVVDEINYKDYKAVTLPFQHNNSGFTGYLAPTMRQGQPYPANFPYPLIGQTAVPSVTQKKFLCDRVMWRIPFSSNFMSMGALTDLGQNMLYANSAHALDMTFEVDPMDEPTLLYLLFEVFDVVRVHQPHRGVIEAVYLRTPFSAGNATT	4240	
HAdV-D37 fiber knob (domain or fragment, Source, isoform and limits not given; soluble extracellular domain assumed; N/O-glycosylated; amine-coupled to CM5 chip) WNPKYDTRTLWTTPDTSPNCTIAQDKDSKLTLVLTKCGSQILANVSLIVVAGKYHIINNKTNPKIKSFTIKLLFNKNGVLLDNSNLGKAYWNFRSGNSNVSTAYEKAIGFMPNLVAYPKPSNSKKYARDIVYGTIYLGGKPDQPAVIKTTFNQETGCEYSITFNFSWSKTYENVEFETTSFTFSYIAQE	2700	
HAdV-C5 fiber knob (domain or fragment, trimer; limits by convention of the Ad5 knob structure 1KNB Source, isoform and limits not given; soluble extracellular domain assumed; N/O-glycosylated; amine-coupled to CM5 chip) TGAITVGNKNNDKLTLWTTPAPSPNCRLNAEKDAKLTLVLTKCGSQILATVSVLAVKGSLAPISGTVQSAHLIIRFDENGVLLNNSFLDPEYWNFRNGDLTEGTAYTNAVGFMPNLSAYPKSHGKTAKSNIVSQVYLNGDKTKPVTLTITLNGTQETGDTTPSAYSMSFSWDWSGHNYINEIFATSSYTFSYIAQE	130	
HAdV-B11 fiber knob (domain or fragment, trimer; knob limits by convention (last shaft residues to C-terminus) Source, isoform and limits not given; soluble extracellular domain assumed; N/O-glycosylated; amine-coupled to CM5 chip) GLTFNSNNICIDDNINTLWTGVNPTEANCQIMNSSESNDCKLILTLVKTGALVTAFVYVIGVSNNFNMLTTHRNINFTAELFFDSTGNLLTRLSSLKTPLNHKSGQNMATGAITNAKGFMPSTTAYPFNDNSREKENYIYGTCYYTASDRTAFPIDISVMLNRRAINDETSYCIRITWSWNTGDAPEVQTSATTLVTSPFTFYYIREDD	1.14	
HAdV-D56 hexon (natural protein, Source, isoform and limits not given; soluble extracellular domain assumed; N/O-glycosylated; amine-coupled to CM5 chip) ATPSMMPQWAYMHIAGQDASEYLSPGLVQFARATDTYFSLGNKFRNPTVAPTHDVTTDRSQRLTLRFVPVDREDTTYSYKARFTLAVGDNRVLDMASTYFDIRGVLDRGPSFKPYSGTAYNSLAPKGAPNSSQWEQKKANAGEQKETHTYGVAPMGGENITISGLQIGTDTTNGKQDPIYANKLYQPEPQVGEENWQETEAFYGGRALKKETKMKPCYGSFARPTNEKGGQAKLRDPEKSQEDFDIDLAFFDTPGGTLTGGGTEYKADIVMCTENVNLETPDTHVVYKPGKDDDSSEINLVQQSMPNRPNYIGFRDNFVGLMYYNSTGNMGVLAGQASQLNAVVDLQDRNTELSYQLLLDSLGDRTRYFSMWNSAVDSYDPDVRIIENHGVEDELPNYCFPLDGSGTNAAYEGVKVKNGQDGDQESEWEKDTNVADRNQICKGNIYAMEINLQANLWKSFLYSNVALYLPDSYKYTPANVTLPTNTNTYEYMNGRVVAPSLVDAYINIGARWSLDPMDNVNPFNHHRNAGLRYRSMLLGNGRYVPFHIQVPQKFFAIKNLLLLPGSYTYEWNFRKDVNMILQSSLGNDLRVDGASVRFDSVNLYATFFPMAHNTASTLEAMLRNDTNDQSFNDYLSAANMLYPIPAKATNVPISIPSRNWAAFRGWSFTRLKTKETPSLGSGFDPYFVYSGSIPYLDGTFYLNHTFKKVSIMFDSSVSWPGNDRLLTPNEFEIKRSVDGEGYNVAQCNMTKDWFLVQMLSHYNIGYQGFHVPEGYKDRMYSFFRNFQPMSRQVVDEINYKDYKAVTLPFQHNNSGFTGYLAPTMRQGQPYPANFPYPLIGQTAVPSVTQKKFLCDRVMWRIPFSSNFMSMGALTDLGQNMLYANSAHALDMTFEVDPMDEPTLLYLLFEVFDVVRVHQPHRGVIEAVYLRTPFSAGNATT	6730	
